# Laboratory results taken from US20240301086A1 (APTEVO RESEARCH AND DEVELOPMENT, published 2024).
# T1: Full-length cynomolgus monkey PSMA (TSC308), on cells (cynomolgus monkey, UniProt Q04609 1-750 (human entry))
# T1 construct: also called cyno PSMA; CHOK1SV/cynoPSMA
# T1 chain: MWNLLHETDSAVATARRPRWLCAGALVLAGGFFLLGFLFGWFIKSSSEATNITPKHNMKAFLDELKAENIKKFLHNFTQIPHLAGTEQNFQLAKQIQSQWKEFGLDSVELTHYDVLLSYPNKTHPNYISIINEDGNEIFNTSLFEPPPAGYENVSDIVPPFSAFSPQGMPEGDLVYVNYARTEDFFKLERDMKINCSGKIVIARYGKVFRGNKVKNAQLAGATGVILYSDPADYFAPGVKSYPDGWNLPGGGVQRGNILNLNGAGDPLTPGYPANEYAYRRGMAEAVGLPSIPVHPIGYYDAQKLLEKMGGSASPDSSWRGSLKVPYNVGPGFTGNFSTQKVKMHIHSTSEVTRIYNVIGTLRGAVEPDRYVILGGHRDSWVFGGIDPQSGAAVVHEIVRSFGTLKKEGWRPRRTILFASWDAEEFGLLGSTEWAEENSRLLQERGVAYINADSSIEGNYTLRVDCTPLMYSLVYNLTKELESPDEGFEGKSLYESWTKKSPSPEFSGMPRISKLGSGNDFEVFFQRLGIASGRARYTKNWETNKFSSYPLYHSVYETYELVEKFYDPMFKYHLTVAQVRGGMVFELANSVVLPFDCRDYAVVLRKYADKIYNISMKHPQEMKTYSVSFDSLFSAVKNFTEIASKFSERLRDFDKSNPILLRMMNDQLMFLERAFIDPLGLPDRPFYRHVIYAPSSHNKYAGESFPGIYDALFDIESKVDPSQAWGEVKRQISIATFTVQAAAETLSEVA
# Columns and labels:
# [1] = molecular target: T2, Human PSMA ECD-AFH (TSC033), recombinant dimeric PSMA ECD (human, UniProt Q04609 44-750); assay: SPR (Biacore T200), scFv-Fc captured on anti-human IgG, dimeric PSMA ECD as analyte, 1:1 fit
# T2 construct: SEC-purified dimer; also called HuPSMA-AFH; Avi-His-Human PSMA ECD
# T2 sequence (Q04609 other isoform, or with tags, fused parts or gaps): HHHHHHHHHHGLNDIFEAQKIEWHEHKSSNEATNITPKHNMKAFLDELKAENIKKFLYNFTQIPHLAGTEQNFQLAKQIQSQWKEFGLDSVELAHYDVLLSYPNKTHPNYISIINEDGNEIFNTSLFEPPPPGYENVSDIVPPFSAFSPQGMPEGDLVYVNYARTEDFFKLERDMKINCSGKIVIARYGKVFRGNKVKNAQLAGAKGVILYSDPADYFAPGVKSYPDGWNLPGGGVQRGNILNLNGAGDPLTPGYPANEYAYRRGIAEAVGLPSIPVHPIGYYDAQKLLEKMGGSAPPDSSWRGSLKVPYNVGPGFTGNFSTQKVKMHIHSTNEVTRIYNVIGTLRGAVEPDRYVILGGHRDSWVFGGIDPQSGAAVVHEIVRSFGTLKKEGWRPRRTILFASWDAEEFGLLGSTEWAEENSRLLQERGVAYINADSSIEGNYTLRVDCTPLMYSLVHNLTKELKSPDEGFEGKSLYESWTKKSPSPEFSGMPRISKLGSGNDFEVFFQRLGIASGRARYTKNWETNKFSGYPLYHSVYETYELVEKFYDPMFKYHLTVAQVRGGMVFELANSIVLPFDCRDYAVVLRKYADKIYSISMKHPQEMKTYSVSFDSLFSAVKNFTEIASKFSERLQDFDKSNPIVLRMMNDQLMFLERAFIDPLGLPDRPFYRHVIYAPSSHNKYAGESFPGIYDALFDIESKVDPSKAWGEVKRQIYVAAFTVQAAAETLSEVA
# Method: Mouse anti-human IgG (GE, BR-1008-39) at 25 μg/ml in 10 mM sodium acetate pH 5.0 was immobilized at a density of ˜2,000-4,000 response units (RU) onto each flow cell of a CM5 research-grade sensor chip (GE) by standard amine coupling chemistry. Each anti-PSMA protein at approximately 40 nM in dPBS with 0.2% BSA buffer was captured in a flow cell with the immobilized anti-human IgG at a flow rate of […] for up to 30 seconds, leaving one flow cell surface unmodified as the reference. Using a multi-cycle kinetics mode, a buffer blank and […] different concentrations of ECD ranging from 1 nM to 243 nM were sequentially injected through each flow cell at 30 μL/min with association times varying from 300-600 seconds and dissociation times varying from 600-1200 seconds. Regeneration was achieved by injection of 3 M MgCl₂ at a flow rate of 30 μL/min for up to 40 seconds followed by dPBS with 0.2% BSA buffer stabilization for 1 min.
# Sensorgrams obtained from kinetic SPR measurements were analyzed using the double subtraction method. The signal from the reference flow cell was subtracted from the analyte binding response obtained from flow cells with captured ligands. The buffer blank response was then subtracted from analyte binding responses and the final double-referenced data were analyzed with Biacore T200 Evaluation software (2.0, GE), globally fitting data to derive kinetic parameters. All sensorgrams were fitted using a simple one-to-one binding model.
# [2] = molecular target: T1, Full-length cynomolgus monkey PSMA …; assay: cell binding on CHOK1SV/cynoPSMA transfectants, MSD electrochemiluminescence (ECL), SULFO-TAG goat anti-human IgG
# Method: (§1) To measure the relative binding activity of humanized PSMA-binding domain variants, constructs were tested in cell binding assays on CHOK1SV cells transfected with human or cynomolgus PSMA. The generation of CHOK1SV/huPSMA cells was described earlier; CHOK1SV/cynoPSMA cells were generated using the same method. Bivalent PSMA-binding domains variants in scFv-Fc format (constructs PSMA01019, PSMA01020, PSMA01021, PSMA01023, PSMA01024 and PSMA01025) were tested in these assays.
# (§2) Binding studies on CHOK1SV transfectants were performed in live cell-based ELISA using electrochemiluminescence (Meso Scale Discovery). CHOK1SV cells were washed and seeded at 50,000 cells/well in 1× Hank's Balanced Salt Solution (HBSS) on 96-well Multi-Array High Bind plates (Meso Scale Discovery) and incubated at 37° C. for one hour. Following a blocking step in PBS buffer with 20% FBS, serial dilutions of PSMA-binding constructs (from 0.002 to 100 nM) were added in PBS buffer with 10% FBS and incubated at room temperature for one hour. Plates were washed with PBS and the specific binding levels were detected by SULFO TAG-labeled goat anti-human IgG antibody (Meso Scale Discovery #R32AJ). Following an hour incubation and wash steps, 150 μL/well surfactant free 1× Read Buffer T were added and samples were analyzed on MSD Sector Imager (Meso Scale Discovery). Resulting electrochemiluminescence (ECL) values versus concentrations were plotted and nonlinear regression analysis to determine EC50 values was performed in GraphPad Prism 7® graphing and statistics software.
# [3] = molecular target: T3, Full-length Human PSMA (TSC435), on cells (human, UniProt Q04609 1-750); assay: cell binding on CHOK1SV/humanPSMA transfectants, MSD electrochemiluminescence (ECL), SULFO-TAG goat anti-human IgG
# T3 construct: also called CHOK1SV/huPSMA; PSMA on C4-2B, 22RV1, LNCaP, MDA-PCa-2b cells
# Method: as §1, §2
Binder,Kd [1],koff [1],kon [1],EC50 [2],EC50 [3]
"PSMA01023 Anti PSMA scFv-Fc (Fc fusion, Monospecific, bivalent scFv-Fc, VL-VH; Contains germlining set G11) DIQMTQSPSTLSASVGDRVTITCRASKSISKYLAWYQQKPGKAPKLLIHSGSSLESGVPSRFSGSGSGTEFTLTISSLQPDDFATYYCQQHIEYPWTFGQGTKVEIKGGGGSGGGGSGGGGSGGGGSQVQLVQSGAEVKKPGASVKVSCKASGYTFTDYYMHWVRQAPGQGLEWMGYFNPYNDYTRYAQKFQGRVTMTRDTSTSTVYMELSSLRSEDTAVYYCARSDGYYDAMDYWGQGTTVTVSSSEPKSSDKTHTCPPCPAPEAAGAPSVFLFPPKPKDTLMISRTPEVTCVVVDVSHEDPEVKFNWYVDGVEVHNAKTKPREEQYNSTYRVVSVLTVLHQDWLNGKEYKCAVSNKALPAPIEKTISKAKGQPREPQVYTLPPSRDELTKNQVSLTCLVKGFYPSDIAVEWESNGQPENNYKTTPPVLDSDGSFFLYSKLTVDKSRWQQGNVFSCSVMHEALHNHYTQKSLSLSPGK",40 nM,0.00018 s⁻¹,4500 M⁻¹ s⁻¹,5 nM,1 nM
"PSMA01024 Anti-PSMA scFv-Fc (Fc fusion, Monospecific, bivalent scFv-Fc, VL-VH) DVQITQSPSTLSASVGDRVTITCRASKSISKYLAWYQQKPGKAPKLLIHSGSSLESGVPSRFSGSGSGTEFTLTISSLQPDDFATYYCQQHIEYPWTFGQGTKVEIKGGGGSGGGGSGGGGSGGGGSQVQLVQSGAEVKKPGASVKVSCKASGYTFTDYYMHWVRQAPGQGLEWMGIFNPYNDYTSYAQKFQGRVTMTRDTSTSTVYMELSSLRSEDTAVYYCARSDGYYDAMDYWGQGTTVTVSSSEPKSSDKTHTCPPCPAPEAAGAPSVFLFPPKPKDTLMISRTPEVTCVVVDVSHEDPEVKFNWYVDGVEVHNAKTKPREEQYNSTYRVVSVLTVLHQDWLNGKEYKCAVSNKALPAPIEKTISKAKGQPREPQVYTLPPSRDELTKNQVSLTCLVKGFYPSDIAVEWESNGQPENNYKTTPPVLDSDGSFFLYSKLTVDKSRWQQGNVFSCSVMHEALHNHYTQKSLSLSPGK",299 nM,0.0026 s⁻¹,8500 M⁻¹ s⁻¹,9 nM,12 nM
"PSMA01025 Anti-PSMA scFv-Fc (Fc fusion, Monospecific, bivalent scFv-Fc, VL-VH) DIQMTQSPSTLSASVGDRVTITCRASKSISKYLAWYQQKPGKAPKLLIHSGSSLESGVPSRFSGSGSGTEFTLTISSLQPDDFATYYCQQHIEYPWTFGQGTKVEIKGGGGSGGGGSGGGGSGGGGSQVQLVQSGAEVKKPGASVKVSCKASGYTFTDYYMHWVRQAPGQGLEWMGIFNPYNDYTSYAQKFQGRVTMTRDTSTSTVYMELSSLRSEDTAVYYCARSDGYYDAMDYWGQGTTVTVSSSEPKSSDKTHTCPPCPAPEAAGAPSVFLFPPKPKDTLMISRTPEVTCVVVDVSHEDPEVKFNWYVDGVEVHNAKTKPREEQYNSTYRVVSVLTVLHQDWLNGKEYKCAVSNKALPAPIEKTISKAKGQPREPQVYTLPPSRDELTKNQVSLTCLVKGFYPSDIAVEWESNGQPENNYKTTPPVLDSDGSFFLYSKLTVDKSRWQQGNVFSCSVMHEALHNHYTQKSLSLSPGK",271 nM,0.011 s⁻¹,40000 M⁻¹ s⁻¹,10 nM,11 nM
"PSMA01012 Anti-PSMA scFv-Fc (Fc fusion, Monospecific, bivalent scFv-Fc, scFv in VL-VH orientation; also called parent construct) DIQMTQSPSAMSASVGDRVTITCRASKSISKYLAWFQQKPGKVPKLRIHSGSTLQSGVPSRFSGSGSGTEFTLTISSLQPEDFATYYCQQHIEYPWTFGQGTKVEIKRGGGGSGGGGSGGGGSQVQLVQSGAEVKKPGASVKVSCKASGYTFTDYYMHWVRQAPGQGLEWMGYFNPYNDYTRYAQKFQGRVTMTRDTSISTAYMELSSLRSDDTAVYYCARSDGYYDAMDYWGQGTTVTVSSSEPKSSDKTHTCPPCPAPEAAGAPSVFLFPPKPKDTLMISRTPEVTCVVVDVSHEDPEVKFNWYVDGVEVHNAKTKPREEQYNSTYRVVSVLTVLHQDWLNGKEYKCAVSNKALPAPIEKTISKAKGQPREPQVYTLPPSRDELTKNQVSLTCLVKGFYPSDIAVEWESNGQPENNYKTTPPVLDSDGSFFLYSKLTVDKSRWQQGNVFSCSVMHEALHNHYTQKSLSLSPGK",40 nM,0.0011 s⁻¹,27000 M⁻¹ s⁻¹,8 nM,6 nM

# Now those with a lower Kd [1], led by results:
Kd [1],koff [1],kon [1],EC50 [2],EC50 [3],Binder
18 nM,0.00017 s⁻¹,9400 M⁻¹ s⁻¹,6 nM,2 nM,"PSMA01021 Anti-PSMA scFv-Fc (Fc fusion, Monospecific, bivalent scFv-Fc, VL-VH) DVQITQSPSTLSASVGDRVTITCRASKSISKYLAWYQQKPGKAPKLLIHSGSSLESGVPSRFSGSGSGTEFTLTISSLQPDDFATYYCQQHIEYPWTFGQGTKVEIKGGGGSGGGGSGGGGSGGGGSQVQLVQSGAEVKKPGASVKVSCKASGYTFTDYYMHWVRQAPGQGLEWMGYFNPYNDYTRYAQKFQGRVTMTRDTSISTAYMELSSLRSDDTAVYYCARSDGYYDAMDYWGQGTTVTVSSSEPKSSDKTHTCPPCPAPEAAGAPSVFLFPPKPKDTLMISRTPEVTCVVVDVSHEDPEVKFNWYVDGVEVHNAKTKPREEQYNSTYRVVSVLTVLHQDWLNGKEYKCAVSNKALPAPIEKTISKAKGQPREPQVYTLPPSRDELTKNQVSLTCLVKGFYPSDIAVEWESNGQPENNYKTTPPVLDSDGSFFLYSKLTVDKSRWQQGNVFSCSVMHEALHNHYTQKSLSLSPGK"
15 nM,0.00019 s⁻¹,13000 M⁻¹ s⁻¹,8 nM,4 nM,"PSMA01019 Anti-PSMA scFv-Fc (Fc fusion, Monospecific, bivalent scFv-Fc, VL-VH) DVQITQSPSTLSASVGDRVTITCRASKSISKYLAWYQQKPGKAPKLLIHSGSSLESGVPSRFSGSGSGTEFTLTISSLQPDDFATYYCQQHIEYPWTFGQGTKVEIKGGGGSGGGGSGGGGSGGGGSEVQLLESGGGLVQPGGSLRLSCAASGYTFTDYYIHWVRQAPGKGLEWIGSFNPYNDYTSYADSVKGRATLSVDKSKNTAYLQMNSLRAEDTAVYYCARSDGYYDAMDYWGQGTLVTVSSSEPKSSDKTHTCPPCPAPEAAGAPSVFLFPPKPKDTLMISRTPEVTCVVVDVSHEDPEVKFNWYVDGVEVHNAKTKPREEQYNSTYRVVSVLTVLHQDWLNGKEYKCAVSNKALPAPIEKTISKAKGQPREPQVYTLPPSRDELTKNQVSLTCLVKGFYPSDIAVEWESNGQPENNYKTTPPVLDSDGSFFLYSKLTVDKSRWQQGNVFSCSVMHEALHNHYTQKSLSLSPGK"
